Values of other authors in PMC6868133 (Scientific Reports, 2019).
Where two headings read alike, the source gives them in different places.

Columns and labels:
[1] = human, in vivo
[2] = rhesus monkey, in vivo, sc
[3] = tested on: fasting plasma glucose levels; conditions: humans
Excerpt: The goal of the current study was to evaluate the pharmacokinetic properties of a single-dose of PT320 in healthy nonhuman primates. […] Systemic Exenatide ...

[4] = Long-Acting (> 24 hr), ref supplement [3-5]

Which “Half Life (T1/2)” value [4] does the source give for albiglutide here?
Its value is 6 to 7 days.

And the T1/2 (long-acting GLP-1R agonists)?
Its T1/2 is 6 to 7 days.

With lixisenatide as the substance, how does the “Half Life (T1/2)” value (Short-Acting (< 24 hr), ref supplement [1,2]) read?
The value was 0.12 days.

And the T1/2 (short-acting GLP-1R agonist, administered once daily)?
The T1/2 was 0.12 days.

For Exenatide, which “patients with higher-titer antibodies (≥625)” value [1] is on record?
The value was 5%.

What about the “patients with low anti-Exenatide antibody titers (≤125)” value [1] of the same substance?
The value was 32%.

What about the “terminal disappearance half-life from plasma” value [2] of the same substance?
Its value is 46.8 to 116 min.

What about the “minimally effective concentration (level required to reduce fasting plasma glucose levels)” value [3] of the same substance?
Its value is “approximately 50 pg/ml”.

For dulaglutide, which “Half Life (T1/2)” value [4] is on record?
The value was 4 days.

What about the T1/2 (long-acting GLP-1R agonists) of the same substance?
Its T1/2 is 4 days.

Which “Half Life (T1/2)” value [4] does the source give for Semaglutide here?
The value was 6 to 7 days.
